Target: HSP27 (small heat shock protein 27), P04792
Sequence (P04792 whole entry): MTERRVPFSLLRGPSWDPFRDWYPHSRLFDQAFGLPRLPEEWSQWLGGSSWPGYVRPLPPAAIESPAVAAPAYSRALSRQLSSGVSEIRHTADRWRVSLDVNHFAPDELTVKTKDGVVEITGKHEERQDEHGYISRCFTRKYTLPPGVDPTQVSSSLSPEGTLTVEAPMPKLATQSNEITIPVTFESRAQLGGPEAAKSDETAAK

Protein	kinase activity (immune-complex kinase assay, phosphorylation of HSP27)	kinase activity (phosphorylation of HSP27 with [gamma-32P]ATP, autoradiography)
N-terminal HA-tagged inactive MAPKAPK3 (T201A/T313A) (protein) MDGETAEEQGGPVPPPVAPGGPGLGGAPGGRREPKKYAVTDDYQLSKQVLGLGVNGKVLECFHRRTGQKCALKLLYDSPKARQEVDHHWQASGGPHIVCILDVYENMHHGKRCLLIIMECMEGGELFSRIQERGDQAFTEREAAEIMRDIGTAIQFLHSHNIAHRDVKPENLLYTSKEKDAVLKLTDFGFAKETTQNALQAPCYTPYYVAPEVLGPEKYDKSCDMWSLGVIMYILLCGFPPFYSNTGQAISPGMKRRIRLGQYGFPNPEWSEVSEDAKQLIRLLLKTDPTERLTITQFMNHPWINQSMVVPQAPLHTARVLQEDKDHWDEVKEEMTSALATMRVDYDQVKIKDLKTSNNRLLNKRRKKQAGSSSASQGCNNQ	the kinase activity was observed only in an active MAPKAPK3	
GST fusion MAPKAPK3 (N-terminal GST fusion human MAPKAPK3) (protein) MDGETAEEQGGPVPPPVAPGGPGLGGAPGGRREPKKYAVTDDYQLSKQVLGLGVNGKVLECFHRRTGQKCALKLLYDSPKARQEVDHHWQASGGPHIVCILDVYENMHHGKRCLLIIMECMEGGELFSRIQERGDQAFTEREAAEIMRDIGTAIQFLHSHNIAHRDVKPENLLYTSKEKDAVLKLTDFGFAKETTQNALQTPCYTPYYVAPEVLGPEKYDKSCDMWSLGVIMYILLCGFPPFYSNTGQAISPGMKRRIRLGQYGFPNPEWSEVSEDAKQLIRLLLKTDPTERLTITQFMNHPWINQSMVVPQTPLHTARVLQEDKDHWDEVKEEMTSALATMRVDYDQVKIKDLKTSNNRLLNKRRKKQAGSSSASQGCNNQ		the kinase activity was observed only in an active MAPKAPK3
GST fusion inactive MAPKAPK3 (T201A/T313A) (protein) MDGETAEEQGGPVPPPVAPGGPGLGGAPGGRREPKKYAVTDDYQLSKQVLGLGVNGKVLECFHRRTGQKCALKLLYDSPKARQEVDHHWQASGGPHIVCILDVYENMHHGKRCLLIIMECMEGGELFSRIQERGDQAFTEREAAEIMRDIGTAIQFLHSHNIAHRDVKPENLLYTSKEKDAVLKLTDFGFAKETTQNALQAPCYTPYYVAPEVLGPEKYDKSCDMWSLGVIMYILLCGFPPFYSNTGQAISPGMKRRIRLGQYGFPNPEWSEVSEDAKQLIRLLLKTDPTERLTITQFMNHPWINQSMVVPQAPLHTARVLQEDKDHWDEVKEEMTSALATMRVDYDQVKIKDLKTSNNRLLNKRRKKQAGSSSASQGCNNQ		the kinase activity was observed only in an active MAPKAPK3
N-terminal HA-tagged active MAPKAPK3 (T201E/T313E) (protein) MDGETAEEQGGPVPPPVAPGGPGLGGAPGGRREPKKYAVTDDYQLSKQVLGLGVNGKVLECFHRRTGQKCALKLLYDSPKARQEVDHHWQASGGPHIVCILDVYENMHHGKRCLLIIMECMEGGELFSRIQERGDQAFTEREAAEIMRDIGTAIQFLHSHNIAHRDVKPENLLYTSKEKDAVLKLTDFGFAKETTQNALQEPCYTPYYVAPEVLGPEKYDKSCDMWSLGVIMYILLCGFPPFYSNTGQAISPGMKRRIRLGQYGFPNPEWSEVSEDAKQLIRLLLKTDPTERLTITQFMNHPWINQSMVVPQEPLHTARVLQEDKDHWDEVKEEMTSALATMRVDYDQVKIKDLKTSNNRLLNKRRKKQAGSSSASQGCNNQ	the kinase activity was observed only in an active MAPKAPK3	
N-terminal HA-tagged MAPKAPK3 (protein) MDGETAEEQGGPVPPPVAPGGPGLGGAPGGRREPKKYAVTDDYQLSKQVLGLGVNGKVLECFHRRTGQKCALKLLYDSPKARQEVDHHWQASGGPHIVCILDVYENMHHGKRCLLIIMECMEGGELFSRIQERGDQAFTEREAAEIMRDIGTAIQFLHSHNIAHRDVKPENLLYTSKEKDAVLKLTDFGFAKETTQNALQTPCYTPYYVAPEVLGPEKYDKSCDMWSLGVIMYILLCGFPPFYSNTGQAISPGMKRRIRLGQYGFPNPEWSEVSEDAKQLIRLLLKTDPTERLTITQFMNHPWINQSMVVPQTPLHTARVLQEDKDHWDEVKEEMTSALATMRVDYDQVKIKDLKTSNNRLLNKRRKKQAGSSSASQGCNNQ	the kinase activity was observed only in an active MAPKAPK3	
GST fusion active MAPKAPK3 (T201E/T313E) (protein) MDGETAEEQGGPVPPPVAPGGPGLGGAPGGRREPKKYAVTDDYQLSKQVLGLGVNGKVLECFHRRTGQKCALKLLYDSPKARQEVDHHWQASGGPHIVCILDVYENMHHGKRCLLIIMECMEGGELFSRIQERGDQAFTEREAAEIMRDIGTAIQFLHSHNIAHRDVKPENLLYTSKEKDAVLKLTDFGFAKETTQNALQEPCYTPYYVAPEVLGPEKYDKSCDMWSLGVIMYILLCGFPPFYSNTGQAISPGMKRRIRLGQYGFPNPEWSEVSEDAKQLIRLLLKTDPTERLTITQFMNHPWINQSMVVPQEPLHTARVLQEDKDHWDEVKEEMTSALATMRVDYDQVKIKDLKTSNNRLLNKRRKKQAGSSSASQGCNNQ		the kinase activity was observed only in an active MAPKAPK3
